Among the data in the supplement of paper PMC12042874 are amyloid nucleation score values, retold here.

± gives the uncertainty stated by the source.

The nature of this series: amyloid nucleation score (Sup35N fusion, yeast selection) (log enrichment); library NNK2; higher = more nucleation; inactive = no reads after selection. The procedure, abridged:
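Yeast lacking psi expressed peptides of 20 random codons fused to Sup35N, received 100 μM copper sulfate for 24 hours, and were then grown for 7 days at 30°C on medium lacking adenine and uracil. Illumina sequencing of input and output plasmid inserts provided the reads. Nucleation scores are DiMSum log enrichments of output over input, centred on the mode of non-aggregating sequences. Any sequence with under 100 input reads was excluded.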
On to WFGYIYFHTTYSFFGHPAAT, for which the amyloid nucleation score is -1.5 ± 1.1.

As to WFHGTGSQHS, the amyloid nucleation score result is “inactive”.

The substance WFLHRGSIGYQTAFFCSYLP showed an amyloid nucleation score of -0.208 ± 1.1.

The substance WFQLRMVLTGEFEPVLERSR yielded an amyloid nucleation score of 2.86 ± 0.11.

In turn, WFSLFLPPVSSKRQPADEMA showed an amyloid nucleation score of -0.317 ± 1.1.

For WFYTYSLFGFVVNIVFTYPL, the amyloid nucleation score is -0.176 ± 0.36.

In turn, WGCSHKLTCVGARHLVLD had an amyloid nucleation score of 2.46 ± 0.17.

WGFTLWKLWRV showed an amyloid nucleation score of 0.676 ± 0.15.

Consider WGITGLVCV, for which the amyloid nucleation score was -0.674 ± 0.76.

WGNNSYSPFASKYAVSQDMD gave an amyloid nucleation score of -0.902 ± 0.62.

WHGTDHKIVGQDIVVVYSAV gave an amyloid nucleation score of 0.491 ± 0.6.

With WHLCFISHTLRGMRTLWSIR, the amyloid nucleation score was -0.829 ± 1.1.

With WHMSWLK, the amyloid nucleation score stood at 0.114 ± 0.63.

Substance WHNITWYMFGPFMPGGEMLM displayed an amyloid nucleation score of 0.446 ± 0.5.

In turn, WIAGLCPVDMADL returned an amyloid nucleation score of 0.644 ± 0.23.

The substance WIARC had an amyloid nucleation score of -0.149 ± 0.42.

As for WIDGVFTIVSFYMELEGIRV, the amyloid nucleation score result is “inactive”.

On to WIHMSFGRLNRYMVRMRGRM, for which the amyloid nucleation score is -0.71 ± 1.

Take WILYLRMNYWKRTCYHAIGM: the amyloid nucleation score was -0.214 ± 0.22.

Regarding WINLSRFFSLGKFRIAIRYY, the amyloid nucleation score is -1.04 ± 1.1.

For WIVSGKLTTTFSLRR, the amyloid nucleation score was 5.15 ± 0.058.

Turning to WKVCLVYDKTFWHVEVEGES, the amyloid nucleation score was found to be 0.042 ± 0.8.

WLFDGGFSVKWPDRVSLARV came in with an amyloid nucleation score of -1.14 ± 1.

WLKVLG: the amyloid nucleation score turned out to be 4.571 ± 0.028.

As for WLLWNSECIANCAFTRYSMF, the amyloid nucleation score was -0.079 ± 0.33.

In the case of WLMGVRG, the amyloid nucleation score is -1.01 ± 0.64.

Regarding WLNYLGFISFRICH, the amyloid nucleation score was -1.66 ± 0.41.

WLTSS gave an amyloid nucleation score of -0.173 ± 0.54.

Regarding WLVRLVIGGFTQSGMWLTEI, the amyloid nucleation score was 1.06 ± 0.16.

In the case of WLYCVVTS, the amyloid nucleation score came out at 1.63 ± 0.42.

Take WLYSIDYNFLKRVIGYCYRN: the amyloid nucleation score result was “inactive”.

The substance WMSMKFCFIFLPFYKSSVCM registered an amyloid nucleation score of 1.91 ± 0.18.

WNKLSLA had an amyloid nucleation score of 0.443 ± 0.49.

Take WNMMPRASEQFYYRL: the amyloid nucleation score result was “inactive”.

The substance WNVWVYLAAAVSGGGPTCVS came in with an amyloid nucleation score of 4.72 ± 0.076.

WPRFTCCPTYYICIAQSPGQ: the amyloid nucleation score worked out at 9.807 ± 0.035.

On to WPTSSTYQHWFD, for which the amyloid nucleation score is 0.606 ± 0.41.

With WPVGLFKSGAISAV, the amyloid nucleation score was -0.475 ± 0.55.

WPYRMMR registered an amyloid nucleation score of 0.554 ± 0.74.

In turn, WRGSLTSPAPGET registered an amyloid nucleation score of 1.87 ± 0.17.

In the case of WRPLWSRAIFGS, the amyloid nucleation score entry was “inactive”.

On to WSCQESIVRSRDDYSRFRCG, for which the amyloid nucleation score turned out to be 3.42 ± 0.13.

WSFHRR had an amyloid nucleation score of -0.552 ± 0.36.

Turning to WSKVMCQWFSDIYSVTNFGC, the amyloid nucleation score was 2.76 ± 0.085.

Substance WSLDSYSMTAVF gave an amyloid nucleation score of -0.467 ± 0.39.

With WSLKKLITDRFGSSCSAALH, the amyloid nucleation score result is “inactive”.

WSNGR registered an amyloid nucleation score of 0.329 ± 0.44.

Regarding WSYLVLSPMRRNRVRMVHII, the amyloid nucleation score was -0.517 ± 0.63.

Take WSYQYRLPILTTFSDFVWRK: the amyloid nucleation score was -0.339 ± 0.28.

WTGHMPMSLVHLMIGWHGHY displayed an amyloid nucleation score of 0.637 ± 0.62.

On to WTGSFRMSRQHMWNSTSFQM, for which the amyloid nucleation score is -0.215 ± 0.5.

Consider WTNVYAIVFR, for which the amyloid nucleation score worked out at 4.65 ± 0.044.

The substance WTRCPQSRYHVLVRVYSYWA registered an amyloid nucleation score of 0.193 ± 0.27.

Turning to WVCHVNMRSEYMDIIMEGTN, the amyloid nucleation score result was “inactive”.

WVCSFHYAEYSLRVIAARFP: the amyloid nucleation score came out at 0.081 ± 0.8.

The substance WVGYLRPKKESLCLGFEDSK displayed an amyloid nucleation score of 3.04 ± 0.12.

In turn, WVIVRLIITTDVQCNYVFLP had an amyloid nucleation score of 0.248 ± 0.38.

Turning to WVSRTNELFGPDRLWIDLWH, the amyloid nucleation score is -0.01 ± 1.

WVTTNMCYTHQFMFGANLVV gave an amyloid nucleation score of 0.276 ± 1.

WVYDVQSCIMTPMSGYWFIL displayed an amyloid nucleation score of -0.476 ± 0.36.

With WVYKWIWRLFDGFHHQLMLS, the amyloid nucleation score entry was “inactive”.

Consider WWFYAYVYWRW, for which the amyloid nucleation score is -0.403 ± 0.43.

On to WWGGINSVLVTDEWLVRLGK, for which the amyloid nucleation score was -0.166 ± 0.19.

Substance WWLSGA gave an amyloid nucleation score of 0.898 ± 0.35.

As to WWNEYSH, the amyloid nucleation score was -1.01 ± 0.39.

The substance WYAAGLKNR came in with an amyloid nucleation score of -0.418 ± 1.

WYALARCYCDGPFSGGWFRM: the amyloid nucleation score is -0.022 ± 0.27.

WYIKF came in with an amyloid nucleation score of 1.54 ± 0.3.

Substance WYKVDFNAWLFCKTIAHIFA gave an amyloid nucleation score of -1.1 ± 0.45.

WYSMISLSRTNIYRMFYVPV came in with an amyloid nucleation score of -0.453 ± 0.53.

WYSSGMTGIIRRVDKWCAFS came in with an amyloid nucleation score of -0.939 ± 0.45.

For the substance WYSVLSFDSFFWPWALLVVY, the amyloid nucleation score was -1.16 ± 0.49.

YAFHSSWYADRSALLQLN registered an amyloid nucleation score of 0.434 ± 0.3.

YAFQGHGNFETGSYPEVLAA returned an amyloid nucleation score of 0.098 ± 0.49.

As to YAIDRRKSL, the amyloid nucleation score result is “inactive”.

Regarding YAIFYGRLNMCGSGLSVPRE, the amyloid nucleation score was determined as 0.381 ± 0.62.

Take YALRLLHGSYNSNT: the amyloid nucleation score worked out at 3.31 ± 0.084.

In turn, YANVA registered an amyloid nucleation score of -1.65 ± 0.75.

Regarding YARGNFKSLCCPMV, the amyloid nucleation score was -0.927 ± 0.78.

In the case of YASISI, the amyloid nucleation score result is “inactive”.

Turning to YCAFSMYMFKGIIRYAICVV, the amyloid nucleation score is -1.25 ± 0.38.

With YCGGFGGFWVEYWWDKYPTC, the amyloid nucleation score was -0.171 ± 0.23.

With YCGRWELAVWY, the amyloid nucleation score was -0.679 ± 1.1.

YCGVSLFSINTYSY: the amyloid nucleation score stood at 6.94 ± 0.05.

With YCHLVV, the amyloid nucleation score amounted to 2.04 ± 0.087.

On to YCHPFVRHRLKLCTDACY, for which the amyloid nucleation score is -0.174 ± 0.31.

YCHPILMRYKPVYTCHYSLM had an amyloid nucleation score of 4.86 ± 0.053.

Substance YCKQNESVLDPSIDSLRVLP registered an amyloid nucleation score of 0.673 ± 0.26.

For YCSLLL, the amyloid nucleation score was 4.79 ± 0.074.

Consider YCTGPVIWPWHKGLLSWYAW, for which the amyloid nucleation score was found to be 1.19 ± 0.57.

YCYKSCCRDKLY yielded an amyloid nucleation score of -0.072 ± 1.1.

Consider YDGSVKMGVFCGVRVYAPVS, for which the amyloid nucleation score is -0.191 ± 1.1.

As for YDLSLVWWSTMFFRLCSLGC, the amyloid nucleation score is -0.601 ± 0.41.

Substance YDQSICLVRNVIAIYDMGSV yielded an amyloid nucleation score of 6.81 ± 0.084.

Take YDVRLFKLTTTSFAIVLSEW: the amyloid nucleation score turned out to be 0.823 ± 0.21.

Take YEGPWQLIVVSTISVFTNSC: the amyloid nucleation score is -0.156 ± 0.38.

The substance YELNSLMKMSYAEQFPKTWA yielded an amyloid nucleation score of 0.447 ± 0.46.

Substance YEPRSNLCCIINTIKFPKTI had an amyloid nucleation score of 6.169 ± 0.031.

The substance YETCSFKNPTFFPRNLYKMW gave an amyloid nucleation score of -0.103 ± 0.46.

For the substance YEVHDDLYYTNKLRTRANGV, the amyloid nucleation score was 1.46 ± 0.43.

In turn, YEVTRRVSWAFDRMYCRVNR returned an amyloid nucleation score of 0.101 ± 0.55.

Substance YFCRMMCLNRWIGRLLFRCN gave an amyloid nucleation score of 0.775 ± 0.62.

Consider YFGGFAKRQSTLPATRKYRL, for which the amyloid nucleation score came out at 1.34 ± 0.52.

In the case of YFGSIIIYRIPAVPQILSVN, the amyloid nucleation score entry was “inactive”.

Take YFIGFSSSMNFGYFMRVYRI: the amyloid nucleation score entry is “inactive”.

YFNPI: the amyloid nucleation score was 5.196 ± 0.047.

Regarding YFNRIYYTDIYNMVALVICF, the amyloid nucleation score came to 4.4 ± 0.12.

In the case of YFSDLDAL, the amyloid nucleation score result was “inactive”.

Substance YFSGCSSFVS registered an amyloid nucleation score of -0.046 ± 0.49.

YFTNFWLLCLLSG returned an amyloid nucleation score of 4.34 ± 0.079.

Take YFWDQGLHPVSFRESTYDLV: the amyloid nucleation score was -0.243 ± 1.1.

In turn, YGGDVSP returned an amyloid nucleation score of 0.1 ± 0.4.

Substance YGHFWDFGVPIASSISYKKG returned an amyloid nucleation score of -0.029 ± 0.79.

In turn, YGIRYYICKFMLKSFICSWY had an amyloid nucleation score of -1.33 ± 1.1.

Consider YGLGKTVFTTDGPGMLNGQA, for which the amyloid nucleation score was found to be 1.18 ± 0.47.

Substance YGPLTIDGFRHAYV came in with an amyloid nucleation score of 0.95 ± 0.29.

Substance YGRCVDLFCGIRYLHGSRLA had an amyloid nucleation score of -0.299 ± 1.1.

In turn, YGRGWHCTLYCIN came in with an amyloid nucleation score of 0.008 ± 0.8.

Substance YGTCFS displayed an amyloid nucleation score of 0.191 ± 0.47.

As for YGWFFVYDEVLLFISYSNVV, the amyloid nucleation score entry was “inactive”.

For YGYKMVTSYVGFL, the amyloid nucleation score was determined as 0.753 ± 0.81.

In turn, YGYSIYLFTGCVKTVLFVSD displayed an amyloid nucleation score of 4.68 ± 0.048.

The substance YHCPVSW came in with an amyloid nucleation score of -0.254 ± 0.32.

As to YHEVFLTLSIEWRMMLWVG, the amyloid nucleation score is -0.318 ± 0.28.

YHGYLPD had an amyloid nucleation score of -0.826 ± 0.63.

The substance YHKAIFFGF showed an amyloid nucleation score of -0.563 ± 0.64.

For YHLLGALYNDAWVIWETTVL, the amyloid nucleation score was -0.116 ± 0.76.

As for YHSTTLTFERAQPSHNNTRL, the amyloid nucleation score was 3.32 ± 0.1.

The substance YHVVVMRSVYTVLTYNRVGA showed an amyloid nucleation score of 0.334 ± 0.65.

In the case of YHYNNNRWVTGHFQWIWSLY, the amyloid nucleation score was 6.453 ± 0.029.

On to YIIFGSRLVDRGSLQ, for which the amyloid nucleation score was 2.95 ± 0.16.

The substance YIIIYLTRHTGVRDVYVSGG came in with an amyloid nucleation score of -0.79 ± 1.

With YIISYFLKMGSQ, the amyloid nucleation score is 4.95 ± 0.092.

YILRMLLRVLSVCVCSLQRS displayed an amyloid nucleation score of -0.091 ± 0.79.

The substance YILRSANLM had an amyloid nucleation score of -0.406 ± 0.3.

For the substance YIMTYDYVCKNVGWYFTRC, the amyloid nucleation score result was “inactive”.

YIPARSRMGYVAQKLGTTRL yielded an amyloid nucleation score of -0.025 ± 0.61.

YIPLVVLHFSVRVWELSYWS: the amyloid nucleation score came out at 0.115 ± 1.

YISFVGW came in with an amyloid nucleation score of -2.23 ± 0.62.

As for YISGQWCLMCRRRGISACVR, the amyloid nucleation score was -0.182 ± 0.55.

As for YISRILYHNGKSDRDGQRDY, the amyloid nucleation score is -0.119 ± 0.65.
